Literature values, collected in PMC5419078.
pKd: −log10 of the molar value. Where two headings read alike, the source gives them in different places.

Columns and labels:
infliximab [1] = target: infliximab
[2] = target: etanercept ECD (Homo sapiens) (UniProt P20333)
infliximab [3] = experiment: SPR
[4] = target: etanercept ECD (Homo sapiens) (UniProt P20333); experiment: SPR

Sequence of TNF (P01375 77-233): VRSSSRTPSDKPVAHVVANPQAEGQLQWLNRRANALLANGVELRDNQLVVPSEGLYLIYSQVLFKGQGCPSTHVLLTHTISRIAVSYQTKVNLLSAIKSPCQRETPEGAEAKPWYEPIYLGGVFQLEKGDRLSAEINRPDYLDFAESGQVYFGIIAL
Sequence of infliximab (main, as listed by the source, chain 1 of 2, other chains not shown): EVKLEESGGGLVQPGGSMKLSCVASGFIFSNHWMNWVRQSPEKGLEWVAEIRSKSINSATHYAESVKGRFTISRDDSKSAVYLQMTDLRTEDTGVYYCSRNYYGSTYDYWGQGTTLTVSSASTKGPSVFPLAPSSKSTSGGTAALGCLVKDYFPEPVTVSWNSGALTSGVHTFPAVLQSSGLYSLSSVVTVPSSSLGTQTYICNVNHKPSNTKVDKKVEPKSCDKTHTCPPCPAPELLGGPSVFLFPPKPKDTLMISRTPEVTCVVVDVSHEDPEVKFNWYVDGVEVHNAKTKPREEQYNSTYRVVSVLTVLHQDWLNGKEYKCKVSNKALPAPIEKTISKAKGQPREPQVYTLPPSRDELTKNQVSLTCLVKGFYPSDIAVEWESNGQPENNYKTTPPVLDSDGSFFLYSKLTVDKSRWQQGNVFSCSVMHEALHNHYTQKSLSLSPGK

pKd (infliximab [1]): 10.05 | pKd [2]: 11.25 | pKd (infliximab [3]): 10.56 | pKd [4]: 10.93
Substance: TNF (from UniProt P01375)
